In the supplement of paper PMC9112550, “Optimization of the antimicrobial peptide Bac7 by deep mutational scanning” (BMC Biology, 2022):

Tested on: Escherichia coli TOP10
Assay: shrunken log2 fold change of peptide-encoding DNA abundance (4.5 h post-induction vs induction); higher = less antimicrobial activity (less host growth inhibition)
Settings: time post-induction: 4.5 h; library: site-saturation at positions 5, 18, 19, 20
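Also: peptides expressed intracellularly from a pBAD plasmid library in pooled LB shake-flask culture, induced with 0.3% L-arabinose, DNA abundance read by NGS, three biological replicates, DESeq2 with apeglm shrinkage.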

**Q.** RRIRLRPPRLPRPRPRPCTFPRP was tested. Which “shrunken log2 fold change” value did it give?
**A.** -0.0569

**Q.** RRIRSRPPRLPRPRPRPLMYPRP was tested. Which “shrunken log2 fold change” value did it give?
**A.** -0.197

**Q.** With RRIRLRPPRLPRPRPRPKCLPRP as the sequence, how does the “shrunken log2 fold change” value read?
**A.** 0.117

**Q.** Which “shrunken log2 fold change” value does the source give for RRIRQRPPRLPRPRPRPCLGPRP here?
**A.** 0.172

**Q.** Which “shrunken log2 fold change” value does the source give for RRIRSRPPRLPRPRPRPLKLPRP here?
**A.** -0.15

**Q.** Which “shrunken log2 fold change” value does the source give for RRIRQRPPRLPRPRPRPEDQPRP here?
**A.** 0.0199

**Q.** Which “shrunken log2 fold change” value does the source give for RRIRTRPPRLPRPRPRPGNSPRP here?
**A.** -0.169

**Q.** How did the “shrunken log2 fold change” value turn out when RRIRDRPPRLPRPRPRPYQHPRP was run?
**A.** -0.221

**Q.** Which “shrunken log2 fold change” value does the source give for RRIRMRPPRLPRPRPRPINMPRP here?
**A.** -0.0607

**Q.** How did the “shrunken log2 fold change” value turn out when RRIRVRPPRLPRPRPRPRYHPRP was run?
**A.** -0.36

**Q.** For RRIRSRPPRLPRPRPRPVHVPRP, which “shrunken log2 fold change” value is on record?
**A.** -0.0394

**Q.** With RRIRQRPPRLPRPRPRPDNYPRP as the sequence, how does the “shrunken log2 fold change” value read?
**A.** -0.194

**Q.** With RRIRWRPPRLPRPRPRPNNEPRP as the sequence, how does the “shrunken log2 fold change” value read?
**A.** -0.0931

**Q.** With RRIRIRPPRLPRPRPRPDDQPRP as the sequence, how does the “shrunken log2 fold change” value read?
**A.** 0.0121

**Q.** Which “shrunken log2 fold change” value does the source give for RRIRPRPPRLPRPRPRPTKLPRP here?
**A.** -0.0235

**Q.** How did the “shrunken log2 fold change” value turn out when RRIRGRPPRLPRPRPRPWQHPRP was run?
**A.** -0.0318

**Q.** For RRIRDRPPRLPRPRPRPIEYPRP, which “shrunken log2 fold change” value is on record?
**A.** -0.029

**Q.** With RRIRIRPPRLPRPRPRPQNQPRP as the sequence, how does the “shrunken log2 fold change” value read?
**A.** -1.03

**Q.** How did the “shrunken log2 fold change” value turn out when RRIRSRPPRLPRPRPRPGMMPRP was run?
**A.** 0.227

**Q.** With RRIRSRPPRLPRPRPRPIECPRP as the sequence, how does the “shrunken log2 fold change” value read?
**A.** -0.139

**Q.** For RRIRQRPPRLPRPRPRPTERPRP, which “shrunken log2 fold change” value is on record?
**A.** 0.313

**Q.** For RRIRCRPPRLPRPRPRPCWDPRP, which “shrunken log2 fold change” value is on record?
**A.** -0.294

**Q.** With RRIRDRPPRLPRPRPRPHQNPRP as the sequence, how does the “shrunken log2 fold change” value read?
**A.** -0.303

**Q.** How did the “shrunken log2 fold change” value turn out when RRIRPRPPRLPRPRPRPWFEPRP was run?
**A.** -0.261

**Q.** For RRIRKRPPRLPRPRPRPCKAPRP, which “shrunken log2 fold change” value is on record?
**A.** 0.0525

**Q.** For RRIRIRPPRLPRPRPRPKMRPRP, which “shrunken log2 fold change” value is on record?
**A.** 0.742

**Q.** For RRIRFRPPRLPRPRPRPDLNPRP, which “shrunken log2 fold change” value is on record?
**A.** -0.321

**Q.** With RRIRCRPPRLPRPRPRPTPFPRP as the sequence, how does the “shrunken log2 fold change” value read?
**A.** 0.207

**Q.** How did the “shrunken log2 fold change” value turn out when RRIRCRPPRLPRPRPRPSATPRP was run?
**A.** 0.593

**Q.** How did the “shrunken log2 fold change” value turn out when RRIRHRPPRLPRPRPRPKSNPRP was run?
**A.** -0.216

**Q.** Which “shrunken log2 fold change” value does the source give for RRIRTRPPRLPRPRPRPHRPPRP here?
**A.** 0.0943

**Q.** With RRIRKRPPRLPRPRPRPVPDPRP as the sequence, how does the “shrunken log2 fold change” value read?
**A.** 0.418

**Q.** How did the “shrunken log2 fold change” value turn out when RRIRRRPPRLPRPRPRPATTPRP was run?
**A.** 0.092

**Q.** With RRIRHRPPRLPRPRPRPSYRPRP as the sequence, how does the “shrunken log2 fold change” value read?
**A.** -0.481

**Q.** With RRIRQRPPRLPRPRPRPSEFPRP as the sequence, how does the “shrunken log2 fold change” value read?
**A.** -0.0736

**Q.** For RRIRFRPPRLPRPRPRPEPHPRP, which “shrunken log2 fold change” value is on record?
**A.** 0.258

**Q.** How did the “shrunken log2 fold change” value turn out when RRIRCRPPRLPRPRPRPEQIPRP was run?
**A.** 0.259

**Q.** Which “shrunken log2 fold change” value does the source give for RRIRFRPPRLPRPRPRPFLRPRP here?
**A.** -0.313

**Q.** With RRIRMRPPRLPRPRPRPTTPPRP as the sequence, how does the “shrunken log2 fold change” value read?
**A.** 1.15

**Q.** RRIRQRPPRLPRPRPRPRILPRP was tested. Which “shrunken log2 fold change” value did it give?
**A.** -0.275

**Q.** RRIRCRPPRLPRPRPRPTDAPRP was tested. Which “shrunken log2 fold change” value did it give?
**A.** 0.215

**Q.** For RRIRFRPPRLPRPRPRPDQCPRP, which “shrunken log2 fold change” value is on record?
**A.** -0.0562

**Q.** RRIRWRPPRLPRPRPRPCMNPRP was tested. Which “shrunken log2 fold change” value did it give?
**A.** 0.297

**Q.** RRIRSRPPRLPRPRPRPREDPRP was tested. Which “shrunken log2 fold change” value did it give?
**A.** 0.432

**Q.** RRIRKRPPRLPRPRPRPDYCPRP was tested. Which “shrunken log2 fold change” value did it give?
**A.** 0.0953

**Q.** With RRIRVRPPRLPRPRPRPIRYPRP as the sequence, how does the “shrunken log2 fold change” value read?
**A.** 0.146

**Q.** RRIRWRPPRLPRPRPRPTIWPRP was tested. Which “shrunken log2 fold change” value did it give?
**A.** 0.0311

**Q.** Which “shrunken log2 fold change” value does the source give for RRIRQRPPRLPRPRPRPYKVPRP here?
**A.** 0.000796

**Q.** With RRIRWRPPRLPRPRPRPNSWPRP as the sequence, how does the “shrunken log2 fold change” value read?
**A.** -0.0727

**Q.** Which “shrunken log2 fold change” value does the source give for RRIRERPPRLPRPRPRPPEHPRP here?
**A.** 0.114

**Q.** With RRIRHRPPRLPRPRPRPVWRPRP as the sequence, how does the “shrunken log2 fold change” value read?
**A.** 0.0724

**Q.** How did the “shrunken log2 fold change” value turn out when RRIRERPPRLPRPRPRPVVKPRP was run?
**A.** -0.413

**Q.** Which “shrunken log2 fold change” value does the source give for RRIRLRPPRLPRPRPRPPRTPRP here?
**A.** 0.591

**Q.** RRIRTRPPRLPRPRPRPMMMPRP was tested. Which “shrunken log2 fold change” value did it give?
**A.** 2.94

**Q.** RRIRWRPPRLPRPRPRPTLEPRP was tested. Which “shrunken log2 fold change” value did it give?
**A.** 0.608

**Q.** Which “shrunken log2 fold change” value does the source give for RRIRRRPPRLPRPRPRPTITPRP here?
**A.** 0.0541

**Q.** For RRIRHRPPRLPRPRPRPHHSPRP, which “shrunken log2 fold change” value is on record?
**A.** -0.147

**Q.** With RRIRHRPPRLPRPRPRPDQQPRP as the sequence, how does the “shrunken log2 fold change” value read?
**A.** 0.0104

**Q.** Which “shrunken log2 fold change” value does the source give for RRIRVRPPRLPRPRPRPQWPPRP here?
**A.** 0.336

**Q.** For RRIRLRPPRLPRPRPRPVCSPRP, which “shrunken log2 fold change” value is on record?
**A.** -0.14

**Q.** RRIRQRPPRLPRPRPRPRNVPRP was tested. Which “shrunken log2 fold change” value did it give?
**A.** -0.0777

**Q.** RRIRMRPPRLPRPRPRPMSTPRP was tested. Which “shrunken log2 fold change” value did it give?
**A.** 0.0207

**Q.** For RRIRIRPPRLPRPRPRPQLWPRP, which “shrunken log2 fold change” value is on record?
**A.** 0.575

**Q.** RRIRWRPPRLPRPRPRPKARPRP was tested. Which “shrunken log2 fold change” value did it give?
**A.** 0.836

**Q.** RRIRKRPPRLPRPRPRPAKVPRP was tested. Which “shrunken log2 fold change” value did it give?
**A.** 0.0797

**Q.** RRIRVRPPRLPRPRPRPQVYPRP was tested. Which “shrunken log2 fold change” value did it give?
**A.** -0.0131

**Q.** How did the “shrunken log2 fold change” value turn out when RRIRGRPPRLPRPRPRPIRWPRP was run?
**A.** 0.577

**Q.** RRIRERPPRLPRPRPRPTIHPRP was tested. Which “shrunken log2 fold change” value did it give?
**A.** -0.324

**Q.** How did the “shrunken log2 fold change” value turn out when RRIRVRPPRLPRPRPRPSWVPRP was run?
**A.** -0.32

**Q.** For RRIRDRPPRLPRPRPRPHHDPRP, which “shrunken log2 fold change” value is on record?
**A.** -0.336

**Q.** With RRIRHRPPRLPRPRPRPAPKPRP as the sequence, how does the “shrunken log2 fold change” value read?
**A.** -0.164

**Q.** How did the “shrunken log2 fold change” value turn out when RRIRQRPPRLPRPRPRPYCKPRP was run?
**A.** -0.257

**Q.** RRIRERPPRLPRPRPRPMRLPRP was tested. Which “shrunken log2 fold change” value did it give?
**A.** 0.472

**Q.** For RRIRVRPPRLPRPRPRPMGYPRP, which “shrunken log2 fold change” value is on record?
**A.** -0.0568

**Q.** Which “shrunken log2 fold change” value does the source give for RRIRKRPPRLPRPRPRPNECPRP here?
**A.** 0.157
